Measured values reported in patent publication US20190284262A1 (Memorial Sloan Kettering, published 2019).

B1: EXT017-32 mouse IgG1 (antibody, V domains shown)
VH: EVQLVESGGGVVQPGRSLRLSCAASGFTFNNHAMHWVRQAPGKGLEWVAVISFDGDDKFYADSVKGRFTISRDNSRNTLFLQMNNLRPEDTAVYYCSRDPYHFASGSYSYFDYWGQGTLVTVSS
VL: QSVLTQPPSVSVAPGKTARITCGGNNIGSKSVHWYQQKPGQAPVLVIYYDSDRPSGIPERFSGSNSGNTATLTISRVEAGDEADYYCQVWDSSSDHYVFGTGTKVTVLG
notes: Mouse IgG1 format of clone #32 made by Eureka Therapeutics; conjugated to APC for flow cytometry of Tregs; also called EXT017-32 mIgG; EXT017-32 mIgG1
B2: EXT017-32 human IgG1 (antibody, V domains shown)
VH: B1 VH
VL: B1 VL
notes: Full-length human IgG1 with matching human lambda or kappa light chain constant region; Fc-enhanced (afucosylated); also called EXT017-32 hIgG; EXT017-32-hIgG1
B3: (FoxP4)_#2 (scFv)
scFv (VL-linker-VH-His/HA tag): QSVVTQPPSVSGAPGQRVTISCTGSSSNIGAGFDVHWYQQLPGTAPKLLIYGNSNRPSGVPDRFSGSKSATSASLAITGLQAEDEADYYCQSYDSSLSGVVFGGGTKLTVLGSRGGGGSGGGGSGGGGSLEMAQVQLVQSGAEVKKPGSSVKVSCKTSGGTFSSYAISWVRQAPGQGLEWMGGIIPIFGTANYAQRFQGRVTITADESTNTVYMELSSLRSEDTAVYYCARESWYLDEWGQGTLVTVSSTSGQAGQHHHHHHGAYPYDVPDYAS
notes: also called EXT018-2; EXT018-02 scFv phage clone
B4: (FoxP4)_#5 (scFv)
scFv (VL-linker-VH-His/HA tag): QSVLTQPPSVSVAPGKTAKITCGGDNIGSKTVHWYQQKPGQAPALLIYYDSDRPSGIPERFSGSNSGNTATLSISRVEAGDEAGYFCQVWDGSSDHVIFGGGTKLTVLGSRGGGGSGGGGSGGGGSLEMAQMQLVQSGGGVVQPGRSLRLSCAASGFTFSSYAMHWVRQAPGKGLEWVAVISYDGSNKYYADSVKGRFTISRDNSKNTLYLQMNSLRAEDTAVYYCARDRHDYVMDVWGKGTTVTVSSTSGQAGQHHHHHHGAYPYDVPDYAS
notes: also called EXT018-5; EXT018-05 scFv phage clone
B5: (FoxP4)_#4 (scFv)
scFv (VL-linker-VH-His/HA tag): QSVLTQPPSVSGAPGQRVTISCTGSNSNIGADFDVHWYQQLPGTAPKLLIYGNNNRPSGVPDRFSGSKSDTSASLAITGLQAEDEADYYCQSYDISLNGYVFGTGTKVTVLGSRGGGGSGGGGSGGGGSLEMAQVQLQQWGAGLLKPSETLSLTCAVSGGSFSDYYWSWIRQPPGKGLEWIGEITHTGSTNYNPSLKSRVTISVDTSKNHFSLNLTSVTAADTAVYYCARSNGFYYDTWGQGTLVTVSSTSGQAGQHHHHHHGAYPYDVPDYAS
notes: also called EXT018-4; EXT018-04 scFv phage clone

How the values were obtained:
[1] = molecular target: T1, EXT017 (Foxp3-7) peptide/HLA-A*02:01 complex, recombinant (human); assay: SPR; printed under the head 'ka [1/Ms]': the heads of c3 and c4 are evidently interchanged
T1 construct: The BLI and SPR paragraphs only say 'EXT017 peptide/HLA-A*02:01 complex'; also called EXT017 peptide/HLA-A*02:01 complex; biotinylated single chain Foxp3p/HLA-A0201 complex

[2] = molecular target: T1, EXT017 (Foxp3-7) peptide/HLA-A*02:01 …; assay: SPR; printed under the head 'kd [1/s]': the heads of c3 and c4 are evidently interchanged (0.005167/1.12E+07 = 0.46 nM)
[3] = molecular target: T1, EXT017 (Foxp3-7) peptide/HLA-A*02:01 …; assay: SPR
[4] = molecular target: T1, EXT017 (Foxp3-7) peptide/HLA-A*02:01 …; assay: SPR; printed under the head 'kd [1/s]': the heads of c3 and c4 are evidently interchanged (0.01222/5.97E+07 = 0.205 nM)
[5] = molecular target: T2, HLA-A*02:01 on T2 cells alone (no peptide added) (human); assay: flow cytometry, phage on T2 without peptide; secondary only 125, unstained 99.8
T2 construct: TAP-deficient T2 cells without pulsed peptide; negative control target, and the HLA molecule whose stabilisation by peptides is read in the T2 stabilization assay; also called HLA-A*02 molecule; HLA-A2 molecule

[6] = molecular target: T3, R3 (RHAMM-R3) peptide/HLA-A*02:01 complex on T2 cells (human); assay: flow cytometry, phage on T2 + R3 peptide; secondary only 118, unstained 91.1
T3 construct: Control target of the phage staining of T2 cells; also called T2 cells pulsed with R3 peptide; RHAMM 3 (R3)

[7] = molecular target: T2, HLA-A*02:01 on T2 cells alone (no …); assay: flow cytometry, phage on T2 without peptide

Row | Binder | koff [1] [s⁻¹] | kon [2] [M⁻¹ s⁻¹] | Kd [3] [pM] | kon [4] [M⁻¹ s⁻¹] | Median:FITC-A [5] | Median:FITC-A [6] | binding result [7]
1 | B1 | 0.00517 | 1.12e+07 | 462 |  |  |  | 
2 | B2 | 0.0122 |  | 205 | 5.97e+07 |  |  | 
3 | B3 |  |  |  |  | 157 | 147 | no binding
4 | B4 |  |  |  |  | 155 | 143 | no binding
5 | B5 |  |  |  |  | 155 | 148 | no binding
